# Data: the nanobody polyreactivity screen of Harvey et al. (2022)
# Experiment: yeast display, Sf9 membrane polyspecificity reagent, FACS + sequencing; frameworks hold sequencing errors
# How it was run: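 Nanobodies from a synthetic yeast display library (Saccharomyces cerevisiae BJ5465), induced 36–48 hours with galactose, were stained 1 hour at 4 °C with 10% biotinylated, detergent-solubilized Sf9 membrane reagent, enriched on streptavidin microbeads, then FACS-sorted. Anti-HA (expression) and streptavidin (reagent binding) fluorescence set low and high (top ~1%) gates. Polyreactivity labels come from the gate of origin. Genes were colony-PCR amplified, MiSeq 2 × 250 sequenced and filtered by CDR length.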
sequence,measurement,value
QVQLVESGGRLVQAGGSLRLSCAASGITFVYYAMGWYRQAPGKERELVASISSGGSTYYADSVKGRFTISRDNAKNTVYLQMNSLKPEDTAVYDCAAPTGWYPAYGEYEYWGQGTQVTVSS,polyreactivity (PSR sort gate),low polyreactivity
QVQLVESGGRLVQAGGSLRLSCAASGITFYDYAMGWYRQAPGKERELVAAITWNGGDTYYADSVKGRFTISRDNAKNTVYLQMHSLKPEDTAVYYCNATRHYFGGFHYEYYYWGQGTQVTVSS,polyreactivity (PSR sort gate),low polyreactivity
QVQLVESGGRLVQAGGSLRLSCAASGRIFARYAMGWYRQAPGKERELLASINSGGNTYYADSVKGRFTISRDNAKNTVYLQMNSLKPEDTAVYYCAAVVGRRPSSRSRFEYDYWGQGTQVTVSS,polyreactivity (PSR sort gate),low polyreactivity
QVQLVESGGRLVQAGGSLRLSCAASGRIFRVYAMGWYRQAPGKERELVAAISSRGGRTYYADSVKGRFTISRDNAKNTVYLQMNSLKPEDTAVYFCAADGRSSSRTTSRYDYWGQGTQVTVSS,polyreactivity (PSR sort gate),high polyreactivity
QVQLVESGGRLVQAGGSLRLSCAASGRIYTPYAMGWYRQAPGTERELVAAISTIGGTTYADSVKGRFTISRDNAKNTVYLQMNSLKPEDTAVYYCNTRRTGRRSTTPGDYWGQGTQVTVSS,polyreactivity (PSR sort gate),high polyreactivity
QVQLVESGGRLVQAGGSLRLSCAASGRNFGLYAMGWYRQAPGKEREFVAAIRWIGGGTYYADSVKGRFTISRDNAKNTVYLQMNSLKPEDTAVYYCAARLSVAWVGYDYWGQGTQVTVSS,polyreactivity (PSR sort gate),low polyreactivity
QVQLVESGGRLVQAGGSLRLSCAASGRTFGYYAMGWYRQAPGQERELVAAITESGGSTYYSDSVKGRFTISRDNAMNTVYLQMNSLKPEDTAVYYFASTHFVKGDYWGQGTQVTVSS,polyreactivity (PSR sort gate),high polyreactivity
QVQLVESGGRLVQAGGSLRLSCAASGRTFQGNAMGWSRQAPGKERELVAAISIRSGRTYYADSVKGRFTISRDNAKNTVYLQMNSLKPEDTAVYYCAAYRGKVRYDYWGQGTQVTVSS,polyreactivity (PSR sort gate),high polyreactivity
QVQLVESGGRLVQAGGSLRLSCAASGRTFRSHTKGWYRKAPGKERELVAAIIIGGSTYYADTVKGRFTISRDNAKNTVYLQMNSLKPEDSAVYYCARFYRYSRDYWGQGTQVTVSS,polyreactivity (PSR sort gate),high polyreactivity
QVQLVESGGRLVQAGGSLRLSCAASGRTFRSYAMGWYRPAPGKEWELVAAIRTSDGITYYADSVKGRFTISRDNAKNTVDLQMNSLQPEDTAVYYCAAENWYKYDYWGQGTQVTVSS,polyreactivity (PSR sort gate),low polyreactivity
QVQLVESGGRLVQAGGSLRLSCAASGRTFSFYAMGWYRQAPGQERELVAGIDWDDGSTSYADSVKGRFTISRDNAKNSVYLQMNSLKPEDTAVYYCAADIGYDDYNDYDYWGQGTQVTVSS,polyreactivity (PSR sort gate),low polyreactivity
QVQLVESGGRLVQAGGSLRLSCAASGRTFSVYAMGWYRQAPGKERELVAGITSGGSTNYADSVKGRFTISRDNAKNTVYLQMNSRKPEDTAVYYCAAEIVYAAFGFDSIGDYWGQGTQVTVSS,polyreactivity (PSR sort gate),low polyreactivity
QVQLVESGGRLVQAGGSLRLSCAASGRTLSSYVIGWYRQAPGKERELVAAITQSTSRTYYADSVKGRFTISRDNAKNTVYLQMHSLKPEDTAVYYCAAEGRFGRKYGYWGQGTQVTVSS,polyreactivity (PSR sort gate),low polyreactivity
QVQLVESGGRLVQAGGSLRLSCAASGSIFGFNAMGWYRQAPGKERELVAAIIYGGSTNYADSVKGRFTISRDNEKNTVYLQMNSQKPEDTAVYYCAARLNYIRRGYWGQGTQVTVSS,polyreactivity (PSR sort gate),high polyreactivity
QVQLVESGGRLVQAGGSLRLSCAASGSIFNRYAMGWYRQAPGKERELVARITNRSGNTYYADSVKGRFTISRANAKNTVYLQMNSLKPEDTAVYYCAATKSLGRYNMDYWGQGTQVTVSS,polyreactivity (PSR sort gate),low polyreactivity
QVQLVESGGRLVQAGGSLRLSCAASGSIFWYNSMGWYRQAPGKERELVAAISRRGGTTYADSVKGRFSISRDNAKYTVYLQLNSLKPEDTAVSYCGTTYTSRYYPYDYWGQGTQVTVSS,polyreactivity (PSR sort gate),high polyreactivity
QVQLVESGGRLVQAGGSLRLSCAASGSIFYRYAMGWYRQAPGQERELVATINSDGGDTYYADSVKGRFTISRDNAKNTVSLQMNSLKPEDTAVYYSAKGYYVLYRAWYDSYDYWGQGTQVTVSS,polyreactivity (PSR sort gate),low polyreactivity
QVQLVESGGRLVQAGGSLRLSCAASGSIFYSYAMGWYRQAPGKERELVAAISRSGVSTYYADSVKGRFTISRDNAKNTVYFQMNSLKPEDTAVYYCASPYFVSYQGYDYWGQGTQVTVSS,polyreactivity (PSR sort gate),high polyreactivity
QVQLVESGGRLVQAGGSLRLSCAASGSILTYYTMGWYRQAPGKERELVARISWSGSRTYYADSVKGRFTISRDNAKNTVYLQMNSLKPEDTAVYYCAAKANWYANYDYWGQGTQVTVSS,polyreactivity (PSR sort gate),high polyreactivity
QVQLVESGGRLVQAGGSLRLSCAASGSTFNINAMGWYRQAPGKERELVAAISWSGDITYYADSVKGRFTISRDNAKNNVYLQMNSLKPEDTAVYYCNTDDPGNYWYAEYDYWGQGTQVTVSS,polyreactivity (PSR sort gate),low polyreactivity
QVQLVESGGRLVQAGGSLRLSCAASGSTFRYYAMGWYRQAPGKERELVAAITSSGTSTYYADSVKGRFTISRDNAKNTVYLQMNSLKPEDTAVYYCAAPPVYKWVSSRYDYWGQGTQVTVSS,polyreactivity (PSR sort gate),low polyreactivity
QVQLVESGGRLVQAGGSLRLSCAASGYNFSKYAMGWYRQAPGKERELVAAISGSGGSTSYADSVKGRFTISRDNAKNTVYLHMNSLKPEDTAVYYCNARSRLQRGRMDYWGQGTQVTVSS,polyreactivity (PSR sort gate),high polyreactivity
QVQLVESGGRLVQAGGSLRLSCAASGYTFGSYPMGWYRQAPGNERELVAAISGGGSTNYADSVKGRFTISRDNAKNTVYLQMNSMKPEDTAVYYCAAYPYVYQLRVEEYDHWGQGTQVTVSS,polyreactivity (PSR sort gate),low polyreactivity
QVQLVESGGRLVQAGGSLRLSCAASGYTIDPYDMGWYRQAPGKERELVASISWSGGDTYYADSVKGRFTISRDNAKNTVYLQMNSLKPEDTAVYYCAADPGYPANRTEWSDFDYWGQGTQVTVSS,polyreactivity (PSR sort gate),low polyreactivity
QVQLVESGGRLVQAGGSLRLSCAPSGFTFYRYAMGWYRQAPGKEREFVAAITWSGGSTYYADSVKGRFTISRDNSKNTVYLQMNSLKPEDTAVYYCAAYVGFDGTREYDYWGQGTQVTVSS,polyreactivity (PSR sort gate),high polyreactivity
QVQLVESGGRLVQAGGSLRLSCAPSGNTFALNAMGWYRQAPGKERELVAAISRRGASTYYADSVKRRFTISRDYAKNTVYIQMNSLKPEDNALDYCAADSGPRVGFFYWGQGTQVTVSS,polyreactivity (PSR sort gate),high polyreactivity
QVQLVESGGRLVQAGGSLRLSCPASGSTFGVYAMGWYRPEPGKEREFVAAINYSGRTYYADSVKGLFTISRDNAKITVYLQMNSLKPEDTAVYYCNADFFYRYYGAYDYWGQGNQVTVSS,polyreactivity (PSR sort gate),high polyreactivity
QVQLVESGGRLVQAGGSLRLSSAASGRIFKKNAMGRYRQAPGKERELVAAISYRGGSTYYADSVKGRFTISRDNAKNSVYLQMNSLKPVDTAVYYCNVGSRGCWDASDYDYWGQGTQVTVSS,polyreactivity (PSR sort gate),high polyreactivity
QVQLVESGGRLVQAGGSLRLTCAASGITFGDYAMGWYRQAPGKERELVAGINWSGDGTYYADSVKGRFTISRDNAKNTVYLQMNSLKPEDTAVYYCAAETFYDYGGYDYWGQGTQVTVSS,polyreactivity (PSR sort gate),low polyreactivity
QVQLVESGGRLVQAGGSLRLTCAATGRTFVRNPMGSYRQAPGKERELVATIRSGGSTNYADSVKGRFTISRDNAKNTVYLQMNSLKPEDTAVYYCATQGSRARYDYYYWGQGTQVTVSS,polyreactivity (PSR sort gate),high polyreactivity
QVQLVESGGRLVQAGGSLSLSCAASGRTFHGYAMGWYRQAPGKERELVARINWSDGRTYYADSVKGRFTISRDNAKNTDYLQMNSLKPEDTAVYYCAADKTVSYAPAWYYYWGQGTQVSVSS,polyreactivity (PSR sort gate),low polyreactivity
QVQLVESGGRLVQAGGSRRLSCAASGFTLRRNAMGWYRQAPGKERELVAAISSSGSTYYADSVKGRFTISRDNAKNTVYLQMNSLKPEDTAVYYCAALSKKVRTGQYNVGGDYWGQGTQVTVSS,polyreactivity (PSR sort gate),high polyreactivity
QVQLVESGGRLVQAGGTLRLSCAASGNIFFVYDMGWYRQPPGKESELVAAISWSGGSTYADSVKGRFTISRDNAKNTVYLQMNSLKPEDTAVYYCAADVAYVEYDYWGQGTQVTVSS,polyreactivity (PSR sort gate),low polyreactivity
QVQLVESGGRLVQARGSLSLSCAASGRTFLRYAMGWYRQAPGKERELVAAISQRGGSTYYADSVKGRFTISRDNAKNTVYLQMNRLKPEDTAVYYCAADFPSSQAVDSWGQGTQVTVSS,polyreactivity (PSR sort gate),high polyreactivity
QVQLVESGGRLVQPGGSLRLSCAASGFIFFYYAMGWYSQAPGKESELVAAISSGGSTNYADSVKGRFTISRDNAKNTVYLQMNSLKPEDTAVYYCAKRPTGGYKYYYTTSKYDYWGQGTQVTVSS,polyreactivity (PSR sort gate),low polyreactivity
QVQLVESGGSLLQAGCSLRLSCAASGFIIAWYAMGWSRQAPGKEWELVAAISLSGGSTRYADSVKGRFTISRDNAKNPVYLQMNCLKPEDTAVYYCNVDRWASTEYDYWGQGTQVTVSS,polyreactivity (PSR sort gate),low polyreactivity
QVQLVESGGSLVKAGGSLRLSCAASGRIFGSNTIGWYRPEPGKERELVAAITSRGGSTYYADSVKGRFTISRDNAKNTVYLQMNSLKPEDTSVYYCAAKTVLFIFGYWGQGTQVSVSS,polyreactivity (PSR sort gate),high polyreactivity
QVQLVESGGSLVQAGGSLRLICAASGFIFWTYAMGWYRQAPGKERELVARISWSGGSTYYADSVKGRFTNSRDNAKNTVYLQMNSLKPEDTAVYYCAALTESSSYGYWGQGTQVTVSS,polyreactivity (PSR sort gate),low polyreactivity
QVQLVESGGSLVQAGGSLRLSCAASGRIFHNNAMGWYRQAPGKERELVAAISTGGSTNYADSVKGRFTISRDNAKNTVYLQMNSLTPEDTAVYYCAAEHPVTYPTSKFDYWGQGTQVTVSS,polyreactivity (PSR sort gate),low polyreactivity
QVQLVESGGSLVQAGGSLRLSCASSGYIFRLYAMGWYRHAPGKEREYVATITASGGTYYADSVKGRFTISRDNAKNTVYLQMNSLKPEDTAVYYCAAAKLRRLSRVRYVYWGQGTQVTVSS,polyreactivity (PSR sort gate),high polyreactivity
QVQLVESGGVLVHAGGSLRLSCAASGITFEYYTMGWYRKAPGKERELVAAISSGGGSTYYADSVKGRFTISRDNAKNTVYLQMKSLKPEDTAVYYCAARGYRADQWEYDYWGQGTQVTVSS,polyreactivity (PSR sort gate),low polyreactivity
QVQLVESGGVLVLVGGSLRLSCADSGMTFYWYTMGWYRQAPGKERELVAAITRRSARTYYADSVKGRFSISRDNAKNTVYLQMNILKPEDTAVYYCGAAGRPGGYVQRDSWGQGTQVTVSS,polyreactivity (PSR sort gate),high polyreactivity
QVQLVESGGVLVQAGGRLRLSCAASGLTFYLYAMGWYRQAPGKQREFVAAISRSGTSTYYADSVKGRFTISRDYAKNTVNLQKNSLKPDDTAVYYCAALNYHKFAHKYDYWGQGTPVTVSS,polyreactivity (PSR sort gate),low polyreactivity
